The target in the test is T1, IL-6/sIL-6R complex (human, UniProt P05231 30-212; P08887 20-355, limits assumed).
T1 construct: Complex of IL-6 and soluble IL-6R; also called IL-6/sIL-6R trans-signalling complex
The test can be described thus: method not stated; value given in Example 4 and used to calculate occupancy.

We go through one molecule from patent US20220135652A1 (FERRING B V, published 2022).

B1: Peptide 1 (the polypeptide of SEQ ID NO: 1 in its active dimerized form) (Fc fusion)
chain: ELLDPCGYISPESPVVQLHSNFTAVCVLKEKCMDYFHVNANYIVWKTNHFTIPKEQYTIINRTASSVTFTDIASLNIQLTCNILTFGQLEQNVYGITIISGLPPEKPKNLSCIVNEGKKMRCEWDGGRETHLETNFTLKSEWATHKFADCKAKRDTPTSCTVDYSTVYFVNIEVWVEAENALGKVTSDHINFDPVYKVKPNPPHNLSVINSEELSSILKLTWTNPSIKSVIILKYNIQYRTKDASTWSQIPPEDTASTRSSFTVQDLKPFTEYVFRIRCMKEDGKGYWSDWSEEASGITYEDRPSKAPSFWYKIDPSHTQGYRTVQLVWKTLPPFEANGKILDYEVTLTRWKSHLQNYTVNATKLTVNLTNDRYLATLTVRNLVGKSDAAVLTIPACDFQATHPVMDLKAFPKDNMLWVEWTTPRESVKKYILEWCVLSDKAPCITDWQQEDGTVHRTYLRGNLAESKCYLITVTPVYADGPGSPESIKAYLKQAPPSKGPTVRTKKVGKNEAVLEWDQLPVDVQNGFIRNYTIFYRTIIGNETAVNVDSSHTEYTLSSLTSDTLYMVRMAAYTDEGGKDGPEFTFTTPKFAQGEDKTHTCPPCPAPEAEGAPSVFLFPPKPKDTLMISRTPEVTCVVVDVSHEDPEVKFNWYVDGVEVHNAKTKPREEQYNSTYRVVSVLTVLHQDWLNGKEYKCKVSNKALPAPIEKTISKAKGQPREPQVYTLPPSREEMTKNQVSLTCLVKGFYPSDIAVEWESNGQPENNYKTTPPVLDSDGSFFLYSKLTVDKSRWQQGNVFSCSVMHEALHNHYTQKSLSLSPGK
notes: Produced in CHO/dhfr- cells; 10 N-glycosylation sites per chain; also called gp130-Fc fusion dimer
Consider B1, for which the Kd was 0.13 nM.
